Results reported in patent US20220363763A1 (ABL BIO, published 2022).
Read-outs that look alike come from different tables or passages of the source.

Columns and labels:
[1] = molecular target: T1, human PD-L1 (construct not stated) (human, UniProt Q9NZQ7 19-239, limits assumed); assay: BLI Octet Red 96, affinity ranking
T1 construct: also called B7-H1 (PD-L1); PD-L1 protein
Excerpt: To explore the binding kinetics of the humanized antibody, this example performed the affinity ranking by using Octet Red 96.

[2] = molecular target: T2, human PD-L1-Fc protein (human, UniProt Q9NZQ7 19-239); assay: ELISA on coated human PD-L1-Fc; EC50 table has no unit, x axis Ab(nM)
T2 construct: Coated on ELISA plates; also called huPD-L1; not shown: Fc part
Method: (§1) To evaluate the antigen binding activity, the humanized antibodies were subjected to ELISA test. Briefly, microtiter plates were coated with human PD-L1-Fc protein at 0.1 μg/ml in PBS, 100 μl/well at 4° C. overnight, then blocked with 100 μl/well of 5% BSA. Five-fold dilutions of humanized antibodies starting from 10 μg/ml were added to each well and incubated for 1-2 hours at RT. The plates were washed with PBS/Tween and then incubate with […] antibody conjugated with Horse Radish Peroxidase (HRP) for 1 hour at RT. After washing, the plates were developed with TMB substrate and analyzed by spectrophotometer at OD 450-630 nm.

[3] = molecular target: T3, human PD-L1 expressed on mammalian cells (human, UniProt Q9NZQ7 19-290); assay: flow cytometry (MFI) on PDL1-CHOK1 cells; EC50 table has no unit, x axis Antibodies(nM)
T3 construct: whole, on cells; also called PDL1-CHOK1 cells; PDL1-Raji cells
Method: (§2) To evaluate the antigen binding property, the humanized antibodies were analyzed for its binding to mammalian expressed PD-L1 by FACS. Briefly, PDL1-CHOK1 cells were firstly incubated with 5-fold serious diluted humanized antibodies starting at 2 μg/ml at RT for 1 hour. After wash by FACS buffer (PBS with 2% FBS), the alexa 488-anti-human IgG antibody was added to each well and incubated at RT for 1 hour. The MFI of Alexa 488 was evaluated by FACSAriaIII.

[4] = molecular target: T4, human PD-L1-his taq protein (human, UniProt Q9NZQ7 19-239, limits assumed); assay: SPR Biacore T200, antibody captured, PD-L1-his injected
T4 construct: also called recombinant PD-L1 protein; recombinant human PD-L1; not shown: his tag
Method: The binding of the humanized antibodies to recombinant PD-L1 protein (human PD-L1-his taq) was tested by BIACORE™ using a capture method. The HL1210-3 mouse mAb were captured using anti-mouse Fc antibody coated on a CM5 chip. A series dilution of human PD-L1-his taq protein was injected over captured antibody for 3 mins at a flow rate of […]. The antigen was allowed to dissociate for 900 s. All the experiments were carried out on a Biacore T200.

[5] = molecular target: T3, human PD-L1 expressed on mammalian cells; assay: FACS receptor blocking on PDL1-CHOK1 cells, competitor Bio-PD1 (30 µg/ml)
Method: To evaluate the blocking effect of humanized antibodies on human PD-L1 expressed on mammalian cells to bind to its receptor PD-1, the FACS-based receptor blocking assay was employed. Briefly, PDL1-CHOK1 cells were firstly incubated with 3-fold serious diluted HL1210-3 mouse mAb starting at 20 μg/ml at RT for 1 hour. After wash by FACS buffer (PBS with 2% FBS), the biotin-labeled huPD-1 were added to each well and incubated at RT for 1 hour. Then, the Streptavidin-PE was added to each well for 0.5 hour post twice wash with FACS buffer. The mean florescence intensity (MFI) of PE was evaluated by FACSAriaIII.

[6] = molecular target: T2, human PD-L1-Fc protein; assay: ELISA on coated human PD-L1-Fc; EC50 table has no unit, x axis Ab(nM); remark: listed apart in the source
Method: as §1

[7] = molecular target: T3, human PD-L1 expressed on mammalian cells; assay: flow cytometry (MFI) on PDL1-CHOK1 cells; EC50 table has no unit, x axis Antibodies(nM); remark: listed apart in the source
Method: as §2

[8] = molecular target: T2, human PD-L1-Fc protein; assay: ELISA on coated human PD-L1-Fc; EC50 table has no unit, x axis Ab(nM); remark: listed apart in the source
Method: as §1

[9] = molecular target: T3, human PD-L1 expressed on mammalian cells; assay: flow cytometry (MFI) on PDL1-CHOK1 cells; EC50 table has no unit, x axis Antibodies(nM); remark: listed apart in the source
Method: as §2

T3 sequence (Q9NZQ7 19-290): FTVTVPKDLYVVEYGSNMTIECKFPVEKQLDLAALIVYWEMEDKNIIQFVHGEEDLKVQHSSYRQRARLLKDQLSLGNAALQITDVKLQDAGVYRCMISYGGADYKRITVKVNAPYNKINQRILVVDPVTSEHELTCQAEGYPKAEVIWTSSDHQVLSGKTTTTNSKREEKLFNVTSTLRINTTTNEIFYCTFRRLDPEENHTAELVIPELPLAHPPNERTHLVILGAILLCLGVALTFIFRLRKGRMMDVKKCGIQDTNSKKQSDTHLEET
T1 sequence (Q9NZQ7 19-239 limits assumed): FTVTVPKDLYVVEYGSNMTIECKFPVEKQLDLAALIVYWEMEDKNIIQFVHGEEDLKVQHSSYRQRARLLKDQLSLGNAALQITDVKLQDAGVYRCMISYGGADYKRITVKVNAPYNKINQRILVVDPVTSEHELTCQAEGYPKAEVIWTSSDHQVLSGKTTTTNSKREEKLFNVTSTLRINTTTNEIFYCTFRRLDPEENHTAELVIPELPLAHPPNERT
T4 sequence (Q9NZQ7 19-239 limits assumed): as above
T2 sequence (Q9NZQ7 19-239 limits assumed): as above

| Binder | Kd [1] | koff [1] | kon [1] | EC50 [2] | EC50 [3] | Kd [4] | koff [4] | kon [4] | TOP [5] | EC50 [6] | EC50 [7] | EC50 [8] | EC50 [9] |
| --- | --- | --- | --- | --- | --- | --- | --- | --- | --- | --- | --- | --- | --- |
| Hu1210-1 (antibody, V domains shown, Hu1210 VH.1 x Vk.1) VH: EVQLVESGGGLVKPGGSLRLSCAASGFTFSSYDMSWVRQAPGKGLEWVSTISDGGGYIYYSDSVKGRFTISRDNAKNSLYLQMNSLRAEDTAVYYCAREFGKRYALDYWGQGTTVTVSS VL: DIQMTQSPSSLSASVGDRVTITCKASQDVTPAVAWYQQKPGKAPKLLIYSTSSRYTGVPSRFSGSGSGTDFTFTISSLQPEDIATYYCQQHYTTPLTFGQGTKLEIK | 4.25 nM | 0.000302 s⁻¹ | 71000 M⁻¹ s⁻¹ | 0.167 nM | 2.31 nM | – | – | – | – | – | – | – | – |
| Hu1210-17 (antibody, V domains shown, Hu1210 VH.4b x Vk.1; human gamma 1 / kappa constant domains) VH: EVQLVESGGGLVQPGGSLRLSCAASGFTFSSYDMSWVRQAPGKSLEWVATISDGGGYIYYSDSVKGRFTISRDNAKNSLYLQMNSLRDEDTAVYICAREFGKRYALDYWGQGTTVTVSS VL: DIQMTQSPSSLSASVGDRVTITCKASQDVTPAVAWYQQKPGKAPKLLIYSTSSRYTGVPSRFSGSGSGTDFTFTISSLQPEDIATYYCQQHYTTPLTFGQGTKLEIK | 2.2 nM | 0.00018 s⁻¹ | 81700 M⁻¹ s⁻¹ | – | – | 0.193 nM | 2.13e-05 s⁻¹ | 110000 M⁻¹ s⁻¹ | 80.9 | 0.208 nM | 1.23 nM | – | – |
| Hu1210-19 (antibody, V domains shown, Hu1210 VH.3a x Vk.1a; human gamma 1 / kappa constant domains) VH: EVQLLESGGGLVQPGGSLRLSCAASGFTFSSYDMSWVRQAPGKSLEWVATISDGGGYIYYSDSVKGRFTISRDNSKNTLYLQMNSLRAEDTAVYICAREFGKRYALDYWGQGTTVTVSS VL: DIQMTQSPSSLSASVGDRVTITCKASQDVTPAVAWYQQKPGKSPKLLIYSTSSRYTGVPSRFSGSGSGTDFTFTISSLQPEDIATYYCQQHYTTPLTFGQGTKLEIK | 2.5 nM | 0.000225 s⁻¹ | 90300 M⁻¹ s⁻¹ | – | – | – | – | – | 87.5 | 0.137 nM | 1.01 nM | – | – |
| Hu1210-21 (antibody, V domains shown, Hu1210 VH.4a x Vk.1a; human gamma 1 / kappa constant domains) VH: EVQLVESGGGLVQPGGSLRLSCAASGFTFSSYDMSWVRQAPGKGLEWVATISDGGGYIYYSDSVKGRFTISRDNAKNSLYLQMNSLRDEDTAVYYCAREFGKRYALDYWGQGTTVTVSS VL: DIQMTQSPSSLSASVGDRVTITCKASQDVTPAVAWYQQKPGKSPKLLIYSTSSRYTGVPSRFSGSGSGTDFTFTISSLQPEDIATYYCQQHYTTPLTFGQGTKLEIK | 3.12 nM | 0.000293 s⁻¹ | 93900 M⁻¹ s⁻¹ | – | – | – | – | – | – | 0.192 nM | 1.29 nM | – | – |
| Hu1210-4 (antibody, V domains shown, Hu1210 VH.2 x Vk.1; human gamma 1 / kappa constant domains) VH: EVQLVESGGGLVKPGGSLRLSCAASGFTFSSYDMSWIRQAPGKGLEWVSTISDGGGYIYYSDSVKGRFTISRDNAKNSLYLQMNSLRAEDTAVYYCAREFGKRYALDYWGQGTTVTVSS VL: DIQMTQSPSSLSASVGDRVTITCKASQDVTPAVAWYQQKPGKAPKLLIYSTSSRYTGVPSRFSGSGSGTDFTFTISSLQPEDIATYYCQQHYTTPLTFGQGTKLEIK | 7.68 nM | 0.000546 s⁻¹ | 71200 M⁻¹ s⁻¹ | 0.184 nM | 2.12 nM | – | – | – | – | – | – | – | – |
| Hu1210-18 (antibody, V domains shown, Hu1210 VH.3 x Vk.1a; human gamma 1 / kappa constant domains) VH: EVQLLESGGGLVQPGGSLRLSCAASGFTFSSYDMSWVRQAPGKGLEWVSTISDGGGYIYYSDSVKGRFTISRDNSKNTLYLQMNSLRAEDTAVYYCAREFGKRYALDYWGQGTTVTVSS VL: DIQMTQSPSSLSASVGDRVTITCKASQDVTPAVAWYQQKPGKSPKLLIYSTSSRYTGVPSRFSGSGSGTDFTFTISSLQPEDIATYYCQQHYTTPLTFGQGTKLEIK | 4.5 nM | 0.000357 s⁻¹ | 79200 M⁻¹ s⁻¹ | – | – | – | – | – | – | 0.195 nM | 1.8 nM | – | – |
| Hu1210-20 (antibody, V domains shown, Hu1210 VH.4 x Vk.1a; human gamma 1 / kappa constant domains) VH: EVQLVESGGGLVQPGGSLRLSCAASGFTFSSYDMSWVRQAPGKGLEWVSTISDGGGYIYYSDSVKGRFTISRDNAKNSLYLQMNSLRDEDTAVYYCAREFGKRYALDYWGQGTTVTVSS VL: DIQMTQSPSSLSASVGDRVTITCKASQDVTPAVAWYQQKPGKSPKLLIYSTSSRYTGVPSRFSGSGSGTDFTFTISSLQPEDIATYYCQQHYTTPLTFGQGTKLEIK | 4.51 nM | 0.0004 s⁻¹ | 88700 M⁻¹ s⁻¹ | – | – | – | – | – | – | 0.185 nM | 1.73 nM | – | – |
| Hu1210-5 (antibody, V domains shown, Hu1210 VH.2a x Vk.1; human gamma 1 / kappa constant domains) VH: EVQLVESGGGLVKPGGSLRLSCAASGFTFSSYDMSWIRQAPGKGLEWVATISDGGGYIYYSDSVKGRFTISRDNAKNSLYLQMNSLRAEDTAVYYCAREFGKRYALDYWGQGTTVTVSS VL: DIQMTQSPSSLSASVGDRVTITCKASQDVTPAVAWYQQKPGKAPKLLIYSTSSRYTGVPSRFSGSGSGTDFTFTISSLQPEDIATYYCQQHYTTPLTFGQGTKLEIK | 4.83 nM | 0.000383 s⁻¹ | 79300 M⁻¹ s⁻¹ | 0.193 nM | 1.43 nM | – | – | – | – | – | – | – | – |
| Hu1210-3 (antibody, V domains shown, Hu1210 VH.1b x Vk.1; human gamma 1 / kappa constant domains) VH: EVQLVESGGGLVKPGGSLRLSCAASGFTFSSYDMSWVRQAPGKSLEWVATISDGGGYIYYSDSVKGRFTISRDNAKNSLYLQMNSLRAEDTAVYICAREFGKRYALDYWGQGTTVTVSS VL: DIQMTQSPSSLSASVGDRVTITCKASQDVTPAVAWYQQKPGKAPKLLIYSTSSRYTGVPSRFSGSGSGTDFTFTISSLQPEDIATYYCQQHYTTPLTFGQGTKLEIK | 2.64 nM | 0.000228 s⁻¹ | 86200 M⁻¹ s⁻¹ | 0.186 nM | 1.37 nM | – | – | – | 84.3 | – | – | – | – |
| Hu1210-13 (antibody, V domains shown, Hu1210 VH.3 x Vk.1; human gamma 1 / kappa constant domains) VH: EVQLLESGGGLVQPGGSLRLSCAASGFTFSSYDMSWVRQAPGKGLEWVSTISDGGGYIYYSDSVKGRFTISRDNSKNTLYLQMNSLRAEDTAVYYCAREFGKRYALDYWGQGTTVTVSS VL: DIQMTQSPSSLSASVGDRVTITCKASQDVTPAVAWYQQKPGKAPKLLIYSTSSRYTGVPSRFSGSGSGTDFTFTISSLQPEDIATYYCQQHYTTPLTFGQGTKLEIK | 4.36 nM | 0.000366 s⁻¹ | 83800 M⁻¹ s⁻¹ | – | – | – | – | – | – | – | – | 0.187 nM | 1.57 nM |
| Hu1210-2 (antibody, V domains shown, Hu1210 VH.1a x Vk.1; human gamma 1 / kappa constant domains) VH: EVQLVESGGGLVKPGGSLRLSCAASGFTFSSYDMSWVRQAPGKGLEWVATISDGGGYIYYSDSVKGRFTISRDNAKNSLYLQMNSLRAEDTAVYYCAREFGKRYALDYWGQGTTVTVSS VL: DIQMTQSPSSLSASVGDRVTITCKASQDVTPAVAWYQQKPGKAPKLLIYSTSSRYTGVPSRFSGSGSGTDFTFTISSLQPEDIATYYCQQHYTTPLTFGQGTKLEIK | 3.23 nM | 0.000251 s⁻¹ | 77800 M⁻¹ s⁻¹ | 0.168 nM | 1.44 nM | – | – | – | – | – | – | – | – |
